T1: C5aR1 (Homo sapiens, UniProt P21730)
T1 sequence (P21730 1-350): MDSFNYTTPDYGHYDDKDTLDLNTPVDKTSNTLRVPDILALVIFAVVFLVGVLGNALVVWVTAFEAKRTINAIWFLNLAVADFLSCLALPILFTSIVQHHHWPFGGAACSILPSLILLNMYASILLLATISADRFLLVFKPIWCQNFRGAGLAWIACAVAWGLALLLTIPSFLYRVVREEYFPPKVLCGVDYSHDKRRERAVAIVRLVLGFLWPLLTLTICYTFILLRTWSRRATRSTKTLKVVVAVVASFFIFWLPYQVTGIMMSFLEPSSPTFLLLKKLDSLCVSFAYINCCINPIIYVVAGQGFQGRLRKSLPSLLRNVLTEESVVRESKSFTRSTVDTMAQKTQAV

T2: biotinylated peptide representing the N-terminus of C5aR1 with tyrosine sulfation (Homo sapiens, UniProt P21730)
T2 construct: the N-terminus with tyrosine sulfation
T2 sequence (P21730 1-37): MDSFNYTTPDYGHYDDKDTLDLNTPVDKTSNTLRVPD


Columns and labels:
C5aR1 = target: T1, C5aR1; experiment: GeneBLAzer reporter assay (C5aR1 mediated Gα signaling); format: cell-based; design: host or cells: vendor's C5aR1 GeneBLAzer reporter cell line; details: for antagonism of C5aR1 compared to reference antibodies or to Avacopan: 10 nM of antibody, 10 nM C5a; for inhibition of C5aR1 signaling / activity in the GeneBLAzer assay: C5a dose response with varying concentrations of antibody; for inhibition of C5aR1 mediated Gα signaling in the presence of C5-alpha: U937 cells, increasing concentrations of C5-alpha, FIGS. 20A-20G
Description: In addition, a GeneBLAzer reporter assay was used, which mimics the calcium flux assay. The GeneBLAzer assay kit and C5aR1 cell line were commercially available from Thermo Fisher (Catalog #K1544). The assay was performed as recommend by the manufacturer. Briefly, antibodies or antagonists were incubated for 30 minutes at 37° C. C5a was then added to the cells and incubated at 37° C. for an additional 4-5 hours. Beta-lactamase substrate was then added and incubated for 2 hours at room temperature. Fluorescent measurements for each well with an excitation/emission of 409/460 (blue) and 409/530 (green) were measured. An increase in the blue to green ratio was proportional to C5aR1 activation and was used to calculate the percent of activation for the cells in each well.
Exemplary anti-C5aR1 antibodies generated as described in Example 1 were screened for antagonist activity against human C5aR1 using the GeneBLAzer assay, as described in Example 1. Briefly, cells were pre-incubated with 10 nM of antibody followed by addition of 10 nM C5a. The engineered induction of beta-lactamase expression by C5a-C5aR1 signaling was measured using the BLA substrate and calculating the ratio of blue and green fluorescence.

[1] = target: T2, biotinylated peptide representing the N-terminus of C5aR1 with tyrosine sulfation; experiment: Epitope mapping by biolayer interferometry, N-terminus with tyrosine sulfation; format: binding; design: key: “+” indicates binding to the listed peptide; “−” indicates lack of binding to the listed peptide; details: 10 μg/mL of antibody, biotinylated peptide on streptavidin biosensor
Description: (§1) The epitope mapping was undertaken, using biolayer interferometry, on a series of exemplary anti-C5aR1 antibodies generated as described in Example 1. Briefly, for each antibody, biotinylated peptides representing ECL2, the N-terminus with tyrosine sulfation, and the N-terminus without tyrosine sulfation, were immobilized in a streptavidin biosensor. Subsequently, the biosensor was exposed to 10 μg/mL of antibody to detect antibody binding to the immobilized peptide. The results of the epitope mapping study are shown in Table 4 (“+” indicates binding to the listed peptide; “−” indicates lack of binding to the listed peptide).

[2] = test system: C5aR1 mutants (N-terminus, ECL1, ECL2, ECL3); experiment: Alanine scanning / mutagenesis epitope mapping of C5aR1; format: binding, human
Excerpt: FIG. 5A is a diagram showing the results of alanine scanning mutations of site I interaction with mab 583. The N-terminal amino acid sequence of C5aR1 is listed across the top of the figure. Glycosylation sites are indicated by rectangle boxes. The only natural glycosylation site is at position N5. The other sites were introduced by mutagenesis. Mutations that abolished clone 583 binding are circled. The sulfated tyrosines at positions 11 and 14 are marked with a star sign. FIG. 5B is a diagram showing results of alanine scanning mutations of site I interaction with mab 66. Mutations that abolished clone 66 binding are circled. The sulfated tyrosines at positions 11 and 14 are marked with a star sign.
Ala substitutions of T8 & D10 moderately reduces its affinity while Y11 & D15 abolishes mAb binding. […] N-glycosylation of at N17 or D17P also abolishes mAb binding. N5 glycan is tolerated but a tandem glycosylation (N5 & N17) is not tolerated. mAb core epitopes are T8-G12 but nature of AA present in D15-D18 influence its binding. […] The core epitope appears to be located near T8-G12, with additional contributions from D15-D18.
Clone 66 was previously characterized as a site I binder and its binding is dependent on tyrosine sulfation at positions 11Y and/or 14Y. […] It should be noted that the only the only non-human species to retain clone 66 binding was baboon, which is the only NHP that retains the DYGHY motif.
However, it was unknown if additional contacts were made with ECL1 or ECL3. […] The data is highlighted in FIG. 5C-5E.
The core epitope of clone 11 is from E180-P183; the core epitope of clone 329 is from E180-P184; and the core epitope of clone 336 is from R178-P183. […] The data for clones 11, 329, and 336 is highlighted in FIG. 5F.

[3] = target: T3, biotinylated peptide representing ECL2 of C5aR1 (Homo sapiens, UniProt P21730); experiment: Epitope mapping by biolayer interferometry, ECL2 peptide; format: binding; design: key: “+” indicates binding to the listed peptide; “−” indicates lack of binding to the listed peptide
T3 construct: cyclic ECL2 peptide spanning from residues R175 to C188
Description: as §1

[4] = biolayer interferometry, 10 μg/mL of antibody, biotinylated peptide on streptavidin biosensor

| antagonism of C5aR1 compared to reference antibodies or to Avacopan (C5aR1) | inhibition of C5aR1 signaling / activity in the GeneBLAzer assay (C5aR1) | Binding to Sulfated N-terminal peptide [1] | Binding to Cyclic ECL2 peptide [3, 4] | Binding to Cyclic ECL2 peptide ([3]; peptide spanning residues R175 to C188) | Molecule | inhibition of C5aR1 mediated Gα signaling in the presence of C5-alpha (C5aR1) | binding to C5aR1 mutant ([2]; Ala mutation of E180 & Y181) | binding to C5aR1 mutant ([2]; mutation of Y182, P183 & P184) | non-human species that retains binding [2] | requirement of tyrosine sulfation (Y11, Y14) for binding [2] | cross-reactivity to cyno and rhesus monkey [2] | binding to C5aR1 mutant ([2]; G12A/T) | binding to C5aR1 mutant ([2]; G12E/D) | binding to C5aR1 mutant ([2]; mutations at D15) | binding to C5aR1 mutant ([2]; mutations at positions 13 and 14) |
| --- | --- | --- | --- | --- | --- | --- | --- | --- | --- | --- | --- | --- | --- | --- | --- |
| improved | inhibited in a dose-dependent fashion | − | + | bound to a cyclic ECL2 peptide | clone 329: anti-C5aR1 Site II antibody; VH SEQ ID NO: 492, VL SEQ ID NO: 552 (antibody, V domains shown) VH: QVQLQQSGAELTKPGASVKLSCKASGYTFTNYWMHWVKQRPGQGLEWIGYLNPSSGYTKYNQKFKDKATLTADKSSSTAYMQLNSLTYEDSAVYYCTRSGGDNYGNPYYFDRWGQGTTVTVSS VL: DVVMTQTPLSLTVSLGDQASISCRSSQSLVHSNGNTYLHWYLQKPGQSPKFLIYKVSNRFSGVPDRFSGSGSGTDFRLKISRVEAEDLGVYFCSQSTLVPLTFGAGTKLEIK | inhibition of C5aR1 mediated Gα signaling | abolished mAb binding | reduced binding |  |  |  |  |  |  |  |
|  | highly potent | + | − |  | clone 66: anti-C5aR1 Site I antibody; VH SEQ ID NO: 483, VL SEQ ID NO: 543 (antibody, V domains shown) VH: QVQLQQSDAELVKPGASVKISCKASGYTFIDHAIHWVKQRPEQGLEWIGYISPGNGEIKYNEKFKAKATLTADKSSSAAYMQLNSLTSADSAVYFCKRALFYYTGKYQPMDYWGQGTTVTDSS VL: DIVMTQSQKFMSTTAGDRVSITCKASQNVGSAVVWYQQKPGRSPKLLIYSSSIRYTGVPDRFTGSGSGTDFTLTINSVQSEDLADYFCQQYNSFPLTFGAGTKLEIK |  |  |  | baboon | sulfation is only required at position 14 |  |  |  |  |  |
| improved | highly potent | + | − |  | clone 583: anti-C5aR1 Site I antibody; VH SEQ ID NO: 536, VL SEQ ID NO: 595 (antibody, V domains shown) VH: EVQLVESGGGLVKPGGSLKLSCAASGFTFNAYAMSWVRQTPEKRLEWVASISTGGNTYCPDSVKDRFTVSRDNVRNILYLQMSSLRSEDTAMYYCTRGYQRFSGFAYWGQGTLVTVS VL: DVVMTQTPLSPPVSLGYQASISCRSSQSLVHSNGNTYLNWYLQKPGQSPKLLIYKVSNRLSGVPDRFSGSGSGTDFTLKISRVETEDLGVYFCSQSTHVPYTFGGGTKLEIK | inhibition of C5aR1 mediated Gα signaling |  |  |  | tyrosine sulfation is not required | lack of cross-reactivity | tolerated | abolish binding | abolish binding | tolerated |

Source: US12187807B2, “Antibody molecules to C5AR1 and uses thereof” (Visterra, Inc., priority 2020, dated 2025)
